The results in this text go back to paper PMC12402178.

The target in assay [1] is microtubules polymerised from porcine brain tubulin (GMPCPP-stabilised seeds, dynamic GDP lattice, or taxol-stabilised) (porcine) (UniProt P02550). Put plainly: FRAP (TIRF microscopy); anillin-GFP bleached on single GMPCPP microtubules; single exponential fit, median of fits.
For assay [2] the target is unchanged. Put plainly: FRAP (TIRF microscopy); anillin-GFP bleached on single GDP (dynamic) microtubules; single exponential fit, median of fits; 26 C.

Usually koff stands for the first-order rate constant of dissociation.

Anillin-GFP (full-length human anillin, isoform 2, 1087 amino acids), sequence (Q9NQW6 other isoform, or with tags, fused parts or gaps): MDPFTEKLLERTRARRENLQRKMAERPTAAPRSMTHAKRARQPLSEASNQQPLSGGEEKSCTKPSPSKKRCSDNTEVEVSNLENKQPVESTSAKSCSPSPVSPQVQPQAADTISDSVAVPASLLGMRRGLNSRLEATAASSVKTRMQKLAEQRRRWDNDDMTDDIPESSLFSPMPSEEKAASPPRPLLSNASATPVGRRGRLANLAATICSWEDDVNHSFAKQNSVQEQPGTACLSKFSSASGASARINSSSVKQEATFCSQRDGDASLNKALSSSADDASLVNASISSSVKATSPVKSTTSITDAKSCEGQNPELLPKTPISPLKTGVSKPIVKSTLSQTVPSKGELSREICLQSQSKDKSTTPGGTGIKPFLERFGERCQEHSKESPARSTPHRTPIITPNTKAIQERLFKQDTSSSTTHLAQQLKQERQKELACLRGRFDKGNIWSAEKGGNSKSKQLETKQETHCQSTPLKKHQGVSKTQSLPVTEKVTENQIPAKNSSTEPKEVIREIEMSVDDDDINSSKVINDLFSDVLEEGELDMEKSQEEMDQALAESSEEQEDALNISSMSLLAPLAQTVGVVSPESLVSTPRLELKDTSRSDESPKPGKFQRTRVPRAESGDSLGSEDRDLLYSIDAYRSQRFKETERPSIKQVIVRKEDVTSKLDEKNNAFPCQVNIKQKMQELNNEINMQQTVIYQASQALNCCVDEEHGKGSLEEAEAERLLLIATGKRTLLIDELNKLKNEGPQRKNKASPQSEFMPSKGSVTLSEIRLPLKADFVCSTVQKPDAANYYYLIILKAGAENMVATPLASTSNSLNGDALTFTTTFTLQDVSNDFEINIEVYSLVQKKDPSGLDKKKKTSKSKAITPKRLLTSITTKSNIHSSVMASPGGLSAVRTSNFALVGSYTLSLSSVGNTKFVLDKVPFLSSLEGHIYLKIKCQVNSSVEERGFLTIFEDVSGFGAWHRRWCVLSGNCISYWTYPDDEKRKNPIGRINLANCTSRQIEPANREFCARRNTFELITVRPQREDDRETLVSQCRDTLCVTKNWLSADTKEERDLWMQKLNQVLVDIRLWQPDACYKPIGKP

For “Anillin-GFP (full-length human anillin, isoform 2, 1087 amino acids) (from UniProt Q9NQW6-2 1-1087) (natural protein)”, the koff in assay [1] amounted to 0.26 s⁻¹; in assay [2] it was 1.07 s⁻¹.
